Laboratory results reported in paper PMC11202230, “The Improved Antineoplastic Activity of Thermophilic L-Asparaginase Tli10209 via Site-Directed Mutagenesis” (Biomolecules, 2024).
Positions count from the first letter of the chain named. Names may count otherwise.

B1: L-asparaginase Tli10209 (Thermococcus litoralis DSM 5473; D50G/T70A) (protein)
chain: MSEKRKLERRGAEDMKRILIIGTGGTIASAKTDAGFKSVLTIDEILEKAGIKLKNGYEIDTRNILNIDSALIQPEDWERIAKEVYKALEDYDGIVITHGTDTLAYTASMLTFMIRGINKPVVLTGSMRPVTEEESDAPRNLKAAIRFAMEDVSGIFVAFMDKIMLGCRTSKIRALGLNAFMSINYPDVAYVKGEEVIYNLPQKRFKPKGEPVLDTKYEPRVVFIRLTPGLDGNAIDALVKAGYRGIVLEGYGAGGIPYRKRDILSKIREITPQIPVVMTTQALYDGVDLTKYEVGRKALEAGIIPAKDMTKETTITKLMWALGHTKNVEEVKEIMHTNYADEIEG
B2: L-asparaginase Tli10209 (Thermococcus litoralis DSM 5473; K48L) (protein)
chain: B1 chain with K48L, G50D, A70T
B3: L-asparaginase Tli10209 (Thermococcus litoralis DSM 5473; F36Y) (protein)
chain: B1 chain with F36Y, G50D, A70T
B4: L-asparaginase Tli10209 (Thermococcus litoralis DSM 5473; T70A) (protein)
chain: B1 chain with G50D
B5: L-asparaginase Tli10209 (Thermococcus litoralis DSM 5473) (protein)
chain: B1 chain with G50D, A70T
B6: L-asparaginase Tli10209 (Thermococcus litoralis DSM 5473; K48L/T70A) (protein)
chain: B1 chain with K48L, G50D
B7: L-asparaginase Tli10209 (Thermococcus litoralis DSM 5473; F36Y/T70A) (protein)
chain: B1 chain with F36Y, G50D
B8: L-asparaginase Tli10209 (Thermococcus litoralis DSM 5473; D50G) (protein)
chain: B1 chain with A70T

Substrate: NC(=O)C[C@H](N)C(=O)O
Assay: Nessler reagent assay of ammonia, Michaelis-Menten fit
Assay type: biochemical, Thermococcus litoralis
Conditions: pH 10, 80 °C, 0.5-18.0 mM L-asparagine, free enzyme
Source text: Nessler reagent assay of ammonia, Michaelis-Menten fit on L-asparaginase Tli10209

Protein | Km | kcat | kcat/Km
B1 | 2.68 mM | 2050 s⁻¹ | 764000 M⁻¹ s⁻¹
B2 | 9.62 mM | 5080 s⁻¹ | 528000 M⁻¹ s⁻¹
B3 | 7.00 mM | 2500 s⁻¹ | 357000 M⁻¹ s⁻¹
B4 | 7.90 mM | 4150 s⁻¹ | 525000 M⁻¹ s⁻¹
B5 | 6.78 mM | 2300 s⁻¹ | 340000 M⁻¹ s⁻¹
B6 | 6.65 mM | 2760 s⁻¹ | 415000 M⁻¹ s⁻¹
B7 | 6.28 mM | 2930 s⁻¹ | 466000 M⁻¹ s⁻¹
B8 | 9.03 mM | 3890 s⁻¹ | 431000 M⁻¹ s⁻¹
